Measured values reported in the RNAGym collection of RNA variant scans (doi:10.1073/pnas.2313332121).

B1: TPR t1 (parent)
chain: GACCAAUCUGCCCUCAGAGCUCGAGAACAUCUUCGGAUGCAGAGGAGGCAGGCUUCGGUGGCGCGAUAGCGCCAACGUCCUCAACCUCCAAUGCAUCCCACCACAUGAUGAUGCCUGAAGAGCCUUGGUUUUUUG

Variants of: B1
Assay: polymerase ribozyme fitness, log enrichment relative to wild type (log ratio); higher = more active; in vitro selection for triplet polymerase activity
In short: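 Mutant libraries for each subunit of a heterodimeric triplet polymerase ribozyme were made by PCR and then transcribed. Each library underwent one round of in vitro selection in triplicate: annealing with a biotinylated primer, the partner subunit and triplets, frozen incubation at −7 °C, gel excision of extended constructs, streptavidin-bead capture and RT-PCR. Input and output libraries were Illumina-sequenced, and only genotypes with ≥10 input reads and ≥1 read per output were kept. Fitness is the logarithm, base 2, of genotype enrichment over wild-type enrichment, computed from inverse-variance-weighted replicate averages.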

Row | Variant | polymerase ribozyme fitness (log ratio)
1 | C13G G120A | -0.711
2 | C13U C22G A41U C72U U78G U81C G122A | -4.05
3 | C13U G63U C70G C114A G120C | -0.574
4 | C13G G45U C72U C89A G120U U130A | -2.6
5 | C13G U14G C15A G71A G122A | -4.63
6 | C13U G51U U116C | -3.09
7 | C13U C115U | -0.41
8 | C13U U21C A27C U87G C114G | -6.59
9 | C13U G42U G44C C88A | -1.42
10 | C13U U21C | 0.405
11 | C13U U21G | 0.0383
12 | C13U C56A | -0.36
13 | C13U C20U G61U C70U U92C | -4.03
14 | C13U C115U G117C | -6.41
15 | C13G G19U G61U C73U G113U | -5.34
16 | C13U A18U G35U A50G G71A C124G | -7.8
17 | C13U A50U G77C A121G C123U C124U G128U U131C | 0.387
18 | C13U G57A G69A G110U | -6.08
19 | C13U A26C C56U | -5.2
20 | C13U U54A | 1.21
21 | C13U G63C U92A | -3.34
22 | C13U G71U U116G | -1.86
23 | C13U A41G G48A G57U U132C | -1.47
24 | C13U A46G | -1.03

Row | Variant | polymerase ribozyme fitness (log ratio)
25 | C13U C70G G122A | -2.19
26 | C13U C34U G52C C70A | -5.48
27 | C13U A24G G69U C104U A111U | -1.91
28 | C13U C20U G61A U92C | -1.11
29 | C13U G60C G93A G110A U130A | -3.35
30 | C13U C102G | -6.43
31 | C13U A37U A66G | -0.629
32 | C13U C49A G71A | -0.504
33 | C13U G48U G63C G110C | -4.51
34 | C13U C76U C86G | -2.13
35 | C13U G47C | -1.18
36 | C13U A18C G77A | -1.41
37 | C13U G52C G60A A95G C98U U126G | -4.8
38 | C13G U32C | -2.08
39 | C13U C56A C62U C97A C102U | -5.15
40 | C13U A16G A50U A90G | -0.51
41 | C13U A16C C101G | -2.83
42 | C13U A18C C88G U92A | -2.48
43 | C13U C34U C88U | -4.18
44 | C13U G51A C56G U78G C89U | -0.499
45 | C13U G19C C40U C72U C98A G110U | -8.2
46 | C13G G39A G113U C114A | -4.57
47 | C13U A18C A90C U96A | -2.27
48 | C13U G42C | -0.781

Row | Variant | polymerase ribozyme fitness (log ratio)
49 | C13U U14G A68G | -5.25
50 | C13U C40U C124G | 1.61
51 | C13U C97U | -1.03
52 | C13U C97A | -3.93
53 | C13U U55G A95U A111C A121U G127C | -0.336
54 | C13U G39C C72U U106G | -2.03
55 | C13U G113C | -1.31
56 | C13U A16C | -0.368
57 | C13U G36C A43U U112G G127U G128A | -5.23
58 | C13U U78C U92G U106A | -2.62
59 | C13U G63C C76A U78A | -6.73
60 | C13U U14C A50U G120A | -0.904
61 | C13U C20A U21G A24C G71C U112C C123A | -6.62
62 | C13G U78C | -0.825
63 | C13G U54C C89U A90U | -3.33
64 | C13U C40U G69U C88G | -2.27
65 | C13U C28G C49U G69U | -1.49
66 | C13U A16C G48C U59A A68G A100C A121C | -7.2
67 | C13U C20U A83G U96A | -3.34
68 | C13G U59A | -1.41
69 | C13G G69U G113A | -2.1
70 | C13G G19U C73U G113U | -5.86
71 | C13U G57A C79A | -1.12
72 | C13U C124A | 1.91

Row | Variant | polymerase ribozyme fitness (log ratio)
73 | C13U A26G G60A G93C | -4.31
74 | C13U A29U | -1.8
75 | C13U A105C | -1.68
76 | C13U C85G C123U | 0.618
77 | C13U G39C C88U C102U C104A G113A | -2.3
78 | C13U G39U G44U A68G | -5.44
79 | C13U A66U U116C | -0.492
80 | C13U U78C C80U | -0.408
81 | C13G G63C U87C | -3.11
82 | C13U C85U C86G U106A | -0.767
83 | C13U G51U G52U C82A | -5.14
84 | C13U C82U C85A G117A | -2.68
85 | C13U G47A C82G | -2.07
86 | C13U U33A U125A | -4.68
87 | C13U C72G U81C A95C A119U | -1.87
88 | C13U G63U C86A U112A | -1.22
89 | C13U G19C C70U | -2.89
90 | C13U G36U U92A | -4.57
91 | C13U C114G | -1.34
92 | C13U C114A | -1.07
93 | C13U G47U G117U | -2.08
94 | C13U A37G A118G G127U G128U U131G | -0.0788
95 | C13U A26U C40U | -2.81
96 | C13G G39U G63U C115U | -5.78

Row | Variant | polymerase ribozyme fitness (log ratio)
97 | C13U A46G C104G | -5.37
98 | C13U C56U U67G G71U U106G C114G | -7.12
99 | C13U C56A C86A | -0.732
100 | C13U A41G C49G U87A | -0.587
101 | C13U G39A | -0.593
102 | C13G U21C C49U C53G G117A A119G | -5.71
103 | C13U C53U U92C C123G U131A | -0.0541
104 | C13U A29G G52U A74C | -1.84
105 | C13U G69U C124U G135C | 2.21
106 | C13U C20U A74U U92A | -3.91
107 | C13U G57A G110U | -1.9
108 | C13U C31A | -5.19
109 | C13U C80U | -0.427
110 | C13U G117C | -2.68
111 | C13G G39U | -2.13
112 | C13G G39A | -2.78
113 | C13U C123G | 2.04
114 | C13U U32G G35A G51A C114A G122C | -6.85
115 | C13U G45U G52A A83C A103U C114U G127A | -5.65
116 | C13U A16G G63A U87A C98A C123G | -6.74
117 | C13G U125A | -1.62
118 | C13G G51U A84C G127U | -6.59
119 | C13U A29U U55A G60A C101G | -4.15
120 | C13G G69U | -0.536

Row | Variant | polymerase ribozyme fitness (log ratio)
121 | C13U U106A | -0.0681
122 | C13G U112A | 0.148
123 | C13G G36A A95C | -4.52
124 | C13U G45A A84U U87A | -1.98
125 | C13G G19U | -4.76
126 | C13G G57U | -1.94
127 | C13U A68G C73U U112G | -3.26
128 | C13U G39A A91G C123A | 0.557
129 | C13U G110C | -3.69
130 | C13G G57C U109A A111U | -4.71
131 | C13G G69A C124A G128A | -4.44
132 | C13U A26G G60C G93C | -3.34
133 | C13U C62G | -0.959
134 | C13U C62A | -0.888
135 | C13U A16U G45U G60U A95U C97U | -2.68
136 | C13U G45A C79G | -1.83
137 | C13U C20U G120C C123G G127A | -2.54
138 | C13U U54A G61A | -0.0236
139 | C13U C62A U78C A118U G122A | -2.29
140 | C13U A43G G60A U92G U116C | -3.1
141 | C13U G61U U129A G135U | -0.936
142 | C13U G36A | -0.918
143 | C13G G48A G63A A83C | -3.74
144 | C13G G39C G113C | -3.84

Row | Variant | polymerase ribozyme fitness (log ratio)
145 | C13U U14A C15G G63A U81G U109A | -7.58
146 | C13U G71C A95C | -1.52
147 | C13U G17A C62U U78A U81A U112A | -4.61
148 | C13U G71A C79U C123U | 1.62
149 | C13U C34U C62A G120C C124U | -6.16
150 | C13U C56U U106G C114G | -4.09
151 | C13G G93A C101G U112C U130A | -4.16
152 | C13U C28G | -1.58
153 | C13G G47C A95C | -4.32
154 | C13U U30C A46U | -5.06
155 | C13U C22U C82A C94A A121U U130A | -3.54
156 | C13U C70U | -0.262
157 | C13U A29U A46U C56A C115U | -2.01
158 | C13G G93A G113C A118U | -5.1
159 | C13U C34A U78G | -3.35
160 | C13G G61A C70G C123U | -5.1
161 | C13U G63A G77A C89U A90U G113A G122A U125A G127C | -5.73
162 | C13U C94U A95C | -1.52
163 | C13U C53G | -0.309
164 | C13U C53U | 0.405
165 | C13U C15U U32G C124A | -6.8
166 | C13U G45A G60C | -0.761
167 | C13U C62U A83C C89U | -0.547
